Reference: patent publication US20060270599A1, “Inhibiting angiogenesis using molecules that enhance plasmin formation or prolong plasmin activity” (Crossbeta Biosciences B.V., priority 2000, published 2006)

B1: endostatin: Recombinant murine endostatin produced by Escherichia coli (protein, UniProt P39061 1591-1774, looked up)
Endostatin: HTHQDFQPVLHLVALNTPLSGGMRGIRGADFQCFQQARAVGLSGTFRAFLSSRLQDLYSIVRRADRGSVPIVNLKDEVLSPSWDSLFSGSQGQLQPGARIFSFDGRDVLRHPAWPQKSVWHGSDPSGRRLMESYCETWRTETTGATGQASSLLSGRLLEQKAASCHNSYIVLCIENSFMTSFSK
modifications: Endostatin
notes: Recombinant murine endostatin produced by Escherichia coli
B2: tPA: Alteplase (recombinant tPA), tissue plasminogen activator (protein, UniProt P00750 36-562, looked up)
Tissue-type plasminogen …: SYQVICRDEKTQMIYQQHQSWLRPVLRSNRVEYCWCNSGRAQCHSVPVKSCSEPRCFNGGTCQQALYFSDFVCQCPEGFAGKCCEIDTRATCYEDQGISYRGTWSTAESGAECTNWNSSALAQKPYSGRRPDAIRLGLGNHNYCRNPDRDSKPWCYVFKAGKYSSEFCSTPACSEGNSDCYFGNGSAYRGTHSLTESGASCLPWNSMILIGKVYTAQNPSAQALGLGKHNYCRNPDGDAKPWCHVLKNRRLTWEYCDVPSCSTCGLRQYSQPQFRIKGGLFADIASHPWQAAIFAKHRRSPGERFLCGGILISSCWILSAAHCFQERFPPHHLTVILGRTYRVVPGEEEQKFEVEKYIVHKEFDDDTYDNDIALLQLKSDSSRCAQESSVVRTVCLPPADLQLPDWTECELSGYGKHEALSPFYSERLKEAHVRLYPSSRCTSQHLLNRTVTDNMLCAGDTRSGGPQANLHDACQGDSGGPLVCLNDGRMTLVGIISWGLGCGQKDVPGVYTKVTNYLDWIRDNMRP

How the values were obtained:
[1] = test system: mouse C26 colon carcinoma; assay: Subcutaneous tumor growth of mouse C26 colon carcinoma; assay type: in vivo; details: BALB/c mice, eleven days after tumor cell inoculation, mean ± standard error of the mean, control 2719±366
Procedure: FIG. 1: Effect of fibrin degradation products (FDP) on tumor growth. For comparison, treatments with Alteplase® (recombinant tPA) or endostatin is shown. FDP was given continuously using Alzet® pumps (Alza, Palo Alto, Calif., USA, type 2001 or 2002) loaded with 200 μl FDP (5 mg/ml). In addition, every other day, FDP was given subcutaneously at a dose of 7 mg/kg.
A model of subcutaneous tumor growth of a mouse C26 colon carcinoma was used to evaluate the effects of FDP. Eleven days after tumor cell inoculation, tumors of the control group had reached a volume of 2719±366 mm^3. In mice treated with FDP, the mean tumor growth was 719±188 mm^3. […] Treatment with tPA, which generates plasmin, suppressed tumor growth to a similar degree (tumor volume 492±215 mm^3) as FDP.
The mouse colon adenocarcinoma cell line C-26 was maintained as a monolayer culture in Dulbecco's Minimal Essential Medium (DMEM) supplemented with 10% heat-inactivated fetal calf serum, penicillin (100 units/ml), and streptomycin (100 μg/ml) in a 5% CO2 environment. […] The presence of single cell suspension was confirmed by phase contrast microscopy, and cell viability was determined by trypan blue staining. […]
The statistical significance of differences between groups was calculated by applying Student's 2-tailed t-test. […]

[2] = molecular target: tPA-mediated plasmin formation from plasminogen (Homo sapiens, UniProt P00750); assay: Measurement of plasmin activity (tPA-mediated plasmin generation, S-2251); assay type: biochemical; details: 50 μg/ml plasminogen, 30 U/ml tPA, 37° C. (FIG. 3)
Procedure: FIG. 3: Effect on plasmin activity of (A) endostatin, (B) human vitronectin fragment+(a.a. 262-367) (SEQ ID NO:1), (C) FDP, and (D) peptide derived from FDP (a.a. 148-160) (SEQ ID NO: 2).
Effect of FDP, FDP-derived synthetic peptide (a.a. 148-160) (SEQ ID NO:2), fragment (a.a. 262-367) vitronectin (SEQ ID NO:1), and endostatin on plasmin generation. Various concentrations were added.
Reactions were performed at 37° C. in HBS buffer (20 mM Hepes, 4 mM KCl, 137 mM NaCl, 3 mM CaCl2, 0.1% BSA, pH 7.4) containing 50 μg/ml plasminogen with or without the addition of endostatin or FDP. The reactions were started by the addition of tPA at a final concentration of 30 U/ml. At several time points, 20 μl samples were taken and stopped with 20 μl buffer containing 150 mM εACA and 150 mM EDTA. Plasmin activity was determined in 96-well plates after the addition of 20 μl chromogenic substrate S-2251 at a final concentration of 1.6 mM. Increase in absorbance was measured at 405 nm for 10 min.

Row | Molecule | tumor volume [1] [mm^3] | stimulation of tPA-mediated plasmin formation [2]
1 | B1 | 1112±372 | ability to stimulate tPA-mediated plasmin formation
2 | B2 | 492±215 | 
